Measured values taken from patent US12214014B2, “Methods for scar reduction by converting scar fibroblasts into adipocytes with hair follicle-derived signals” (The Trustees of the University of Pennsylvania, priority 2017, dated 2025).
“Also recorded” adds a separate entry of the source.

B1: BMP4: human recombinant bone morphogenetic protein 4 (R&D Systems) (protein, UniProt P12644 293-408, looked up)
Bone morphogenetic protein 4: SPKHHSQRARKKNKNCRRHSLYVDFSDVGWNDWIVAPPGYQAFYCHGDCPFPLADHLNSTNHAIVQTLVNSVNSSIPKACCVPTELSAISMLYLDEYDKVVLKNYQEMVVEGCGCR

Assays:
[1] = tested on: regenerated adipocytes in wounds; assay: Adipocyte regeneration in large excisional skin wounds (adipocyte/hair follicle index, Oil Red O); type: in vivo, mouse; details: for Adipocyte/hair index (new adipocyte/follicle ratio): WT mice treated during wound healing, post-wounding Day 28; for regeneration of new adipocytes in hair-bearing wounds: treatment during wound healing (2 mg/kg), hair follicles regenerate normally
Procedure: (§1) All animal experiments were carried out in accordance to with the guidelines of the IACUC of the University of Pennsylvania and the University of California, Irvine. Full thickness 1.5×1.5 cm (2.25 cm^2) excisional wounds were inflicted on the backs of three to eight week-old mice as described in M. Ito et al., Nature 447:316 (2007).
Whole mount wounds were stained for Oil Red O and the number of regenerated hair follicles was counted from the skin surface, where each new hair is clearly visible. The number of new adipocytes was counted from the underside, where each adipocyte is clearly visible due to their very large size and prominent marking by Oil Red O dye. For each experiment, adipose tissue regeneration was quantified as the ratio of all new adipocytes/all new hair follicles (aka adipocyte/hair follicle index). Some wound samples (FIG. 2B) were stained for lacZ and photographed, then additionally stained for Oil Red O and photographed again. Adipocytes were then micro-dissected and photographed under stereomicroscope.

Zfp423 = Zfp423 reporter (lacZ) activity in wounds of Zfp423-lacZ mice; type: in vivo, mouse; details: 2 mg/kg during wound healing, day 21
Procedure: FIG. 25: BMP signaling is necessary for Zfp423 reporter activation in wounds. […] Asterisk marks lacZ-positive dermal papillae of new hair follicles. Size bars: 100 μm.
as §1

[2] = tested on: mouse dermal cells isolated from day 15 wounds; assay: Primary mouse adipogenic cell culture; type: cell-based; details: 6 ng/ml hBMP4 or 25 ng/ml hBMP2 with differentiation media
Procedure: Primary scar cells were isolated from day 15 wounds as described in D. Gay et al., Nature medicine 19:916 (2013) with minor modifications. Single cell fractions were created and cultured to confluence in high-glucose to DMEM (Gibco) supplemented with 10% FBS (Atlanta Biologicals) and […] Pen/Strep cocktail (Gibco). […] After three days, cells differentiation media was switched to adipocyte maintenance media (Cell Solutions). Cells were cultured in a water-jacketed incubator at 37° C. with 5% CO2 output
(§2) Total RNA was isolated using Trizol reagent (Thermo) or RNEasy Micro-Kit (Qiagen) as per manufacturer's protocol with minor modifications. Total RNA was reverse-transcribed and cDNA was amplified using PCR primers described in J. Ishibashi et al., Mol Cell Biol 32:2289 (2012). See Tables 3 and 4 for the sequences of primers used.

human keloid scar cells = assay: Primary human adipogenic cell culture, keloid scar cells; type: cell-based; details: 20 ng/ml hBMP4 for 48 hours, then adipogenic cocktail; for adipogenic conversion of keloid scar cells (Oil Red O positive adipocytes): n=3
Procedure: (§3) All human experiments were carried out in accordance with the guidelines of the IRB of the University of California, Irvine, Children's Hospital Los Angeles and Kyungpook National University. Keloid fibroblasts were isolated as described in Y. S. Lee et al., Wound repair and regeneration: official publication of the Wound Healing Society [and] the European Tissue Repair Society 24:302 (2016). Human hypertrophic scar myofibroblasts were derived from clinical specimen biopsies and expanded in vitro as described in M. Vangipuram et al., Journal of visualized experiments: JoVE, e3779 (2013).
Primary human scar cells were cultured in DMEM/F12 media (Gibco) supplemented with 10% FBS (Fisher Scientific). Upon confluency, cells were switched to serum free DMEM/F12 media and treated with 20 ng/ml recombinant hBMP4 protein (R&D Systems) for 48 hours before differentiation. For the hair follicle co-culture, cells were grown in 12-well trans-well plates. Once near confluency, medium was changed to William's E hair follicle organ culture medium, and 40 microdissected human scalp anagen hair follicles were co-cultured on top of the membrane insert in each well for 5 days. Control cells were cultured in William's E medium without hair follicles. In all cases, adipogenic differentiation was induced by adding adipogenic cocktail: DMEM/F12 media supplemented with 1% ITS premix (insulin-transferrin-selenium; BD Biosciences), 0.5 mM isobutylmethylxanthine (Sigma), 0.1 μM cortisol (Sigma), 1 μM dexamethasome (Sigma), 0.2 nM triiodothyronine (Sigma), and 1 μM rosiglitazone (Cayman Chemical). After 4 days of induction, cells were changed to maintenance media: DMEM/F12 media supplemented with 1% ITS premix (BD Biosciences), 0.1 μM cortisol (Sigma), and 0.2 nM triiodothyronine (Sigma). For the hair follicle co-culture, cells were maintained in the induction media for 7 days. Lipid droplets were visualized after 7 days and cells were harvested for RNA isolation on day 10.
as §2

[3] = tested on: human hypertrophic scar fibroblasts; assay: Primary human adipogenic cell culture, hypertrophic scar fibroblasts; type: cell-based; details: n=3
Procedure: as §3
Primary human scar cells were cultured in DMEM/F12 media (Gibco) supplemented with 10% FBS (Fisher Scientific). Upon confluency, cells were switched to serum free DMEM/F12 media and treated with 20 ng/ml recombinant hBMP4 protein (R&D Systems) for 48 hours before differentiation. For the hair follicle co-culture, cells were grown in 12-well trans-well plates. Once near confluency, medium was changed to William's E hair follicle organ culture medium, and 40 microdissected human scalp anagen hair follicles were co-cultured on top of the membrane insert in each well for 5 days. Control cells were cultured in William's E medium without hair follicles. […]

[4] = listed as small-molecule inhibitor of SMAD1/5/8 phosphorylation

Molecule	Adipocyte/hair index (new adipocyte/follicle ratio) [1]	Adipocyte/hair index (new adipocyte/follicle ratio) [1, 4]	regeneration of new adipocytes in hair-bearing wounds [1]	regeneration of new adipocytes in hair-bearing wounds [1, 4]	Zfp423 activity (reporter) in dermal cells surrounding new hair follicles and in blood vessels (Zfp423)	Zfp423 activity (reporter) in dermal cells surrounding new hair follicles and in blood vessels (Zfp423; [4])	activation of adipocyte-specific genes (qRT-PCR) [2]	reprogramming of cultured mouse dermal cells into adipocytes ([2]; without BMP non-adipogenic)	expression of adipogenic genes ZNF423, ADIPOQ, ADIPOSIN, PPARG2, FABP4 (qRT-PCR) (human keloid scar cells)	expression of adipogenic genes ZNF423, ADIPOQ, ADIPOSIN, PPARG2, FABP4 (qRT-PCR) (human keloid scar cells; listed as hBMP4)	adipogenic conversion of keloid scar cells (Oil Red O positive adipocytes) (human keloid scar cells)	adipogenic conversion of keloid scar cells (Oil Red O positive adipocytes) (human keloid scar cells; listed as hBMP4)	qRT-PCR against select adipogenic genes ([3]; following hBMP4 treatment)	adipogenic potential of hypertrophic scar fibroblasts (Oil Red O) ([3]; hBMP4 for 48 hours prior to differentiation, vs non-hBMP4 control)
c1ccc2c(-c3cnn4cc(-c5ccc(N6CCNCC6)cc5)cnc34)ccnc2c1 [LDN-193189]	0.58 ± 0.35	0.58+/−0.35	near complete loss of regenerated adipocytes	largely prevented new adipocyte regeneration	significantly downregulated	downregulated								
B1							activation of adipocyte-specific genes	induced their reprogramming into adipocytes	expression of adipocyte markers; also recorded: activation of adipocyte-specific genes	upregulation of adipogenic genes	induced their conversion to lipid-laden adipocytes; also recorded: induced their reprogramming into adipocytes	consistently induced adipogenic conversion	only ADIPISIN becomes significantly upregulated	does not induce an increase in adipogenic potential
